What is called IC50 is the concentration needed to halve the response being measured. A higher IC50 goes with a need for much substance.

Chain of light-activated rhodopsin (bovine) (P02699 whole entry, the tested form may be a part): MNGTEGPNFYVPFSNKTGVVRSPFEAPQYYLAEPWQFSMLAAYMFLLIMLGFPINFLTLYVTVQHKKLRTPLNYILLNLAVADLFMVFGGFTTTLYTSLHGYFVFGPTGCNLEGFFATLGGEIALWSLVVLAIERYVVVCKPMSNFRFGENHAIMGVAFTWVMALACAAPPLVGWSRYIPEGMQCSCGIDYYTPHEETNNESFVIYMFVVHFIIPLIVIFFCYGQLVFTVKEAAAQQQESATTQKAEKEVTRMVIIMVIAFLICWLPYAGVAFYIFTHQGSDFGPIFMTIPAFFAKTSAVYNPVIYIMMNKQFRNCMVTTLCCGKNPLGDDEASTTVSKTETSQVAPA

The target of the first assay is human thrombin receptor (PAR1) (human) (UniProt P25116). Briefly: ELISA, purified MBP-Gαq on reconstituted PAR1 with thrombin receptor activating peptide. On the technique in general: An ELISA detects its analyte on a solid surface through an enzyme-linked reagent.
Chain of human thrombin receptor (PAR1) (human) (P25116 42-425): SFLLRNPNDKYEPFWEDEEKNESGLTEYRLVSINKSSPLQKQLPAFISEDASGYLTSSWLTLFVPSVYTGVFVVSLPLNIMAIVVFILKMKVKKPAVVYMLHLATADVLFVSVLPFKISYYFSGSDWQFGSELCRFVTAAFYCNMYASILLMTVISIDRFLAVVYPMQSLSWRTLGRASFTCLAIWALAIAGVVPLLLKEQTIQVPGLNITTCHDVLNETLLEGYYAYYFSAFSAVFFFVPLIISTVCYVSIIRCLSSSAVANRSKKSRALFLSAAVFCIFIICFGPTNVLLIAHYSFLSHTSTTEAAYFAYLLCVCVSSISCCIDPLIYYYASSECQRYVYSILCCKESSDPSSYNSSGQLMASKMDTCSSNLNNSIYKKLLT
For the molecule maltose binding protein-Gαq (MBP-Gαq), the IC50 is 214 nM. That is a sub-micromolar value.

Another assay has as its target light-activated rhodopsin (bovine) (UniProt P02699). Briefly: ELISA, MBP fusion on light-activated rhodopsin.
MBP-Gαt340-350K341R: the IC50 was 6 µM.

For a further assay, the target named is β2 adrenergic receptor. Briefly: ELISA of panned Gs library clones on reconstituted receptor.
With NCMKFRSCGLF [BAR20 …], the ELISA worked out at 0.079.
The same measure, in the same setting: then QRMPLRLFEFL [AG3 …], with 0.217; and QRLRLRKYRLF [BAR31 …], with 0.026; and PCIQLGQYESF [BAR40 …], with 0.028.
On the same count and under the same terms, then RWLHWQYRGRG [AG20 …], with 0.431; and HRRHIGPFALL [BAR11 …], with 0.048; and QGMQLRRFKLR [AG1 …], with 0.435.
Still for that read-out and setting: then DRMHLWRFGLL [AG11 …], with 0.192; and QGEHLRQLQLQ [AG2 …], with 0.33.
As for QRLHLRGYEFL [AG13 …], the ELISA came out at 0.054.
Still for that read-out and setting: then QRLRLGPDELF [AG4 …], with 0.291.
In turn, QRMPLRQYELL [AG9 …] came in with an ELISA of 0.19.
Turning to QWMDLRQHELL [BAR3 …], the ELISA came out at 0.185.
The same measure, in the same setting: then QRMNLGPCGLL [AG18 …], with 0.155.
The molecule PRPRLLRFKIP [AG19 …] displayed an ELISA of 0.361.
On the same count and under the same terms, then QRVHLRQDELL [BAR2 …], with 0.197; and QRIHRRPFKFF [BAR1 …], with 0.218; and ERLHRRLFQLH [BAR8 …], with 0.047.

Source of the values: patent US20080280308A1.
